Assays:
GAPDH [1] = target: T1, GAPDH (Homo sapiens, UniProt P04406 1-335); experiment: EMSA; 10 mM Tris-HCl pH 8.0, 50 mM KCl, 2 mM DTT, 0.5 mM EDTA, 0.1 mg/ml BSA, 0.1 mg/ml heparin, room temperature; FP 30 min with 2 nM RNA; EMSA 20 min plus 10% glycerol and RiboLock, 6% native gel at 4°C; mass photometry without BSA/heparin; conditions: protein: recombinant, tags: N-terminal His, chain copies: 4, single strand
GAPDH [2] = target: T1, GAPDH; experiment: fluorescence polarization; 10 mM Tris-HCl pH 8.0, 50 mM KCl, 2 mM DTT, 0.5 mM EDTA, 0.1 mg/ml BSA, 0.1 mg/ml heparin, room temperature; FP 30 min with 2 nM RNA; EMSA 20 min plus 10% glycerol and RiboLock, 6% native gel at 4°C; mass photometry without BSA/heparin; conditions: protein: recombinant, tags: N-terminal His, chain copies: 4, single strand
GAPDH [3] = target: T1, GAPDH; experiment: EMSA, possibly a misprint for nM; 10 mM Tris-HCl pH 8.0, 50 mM KCl, 2 mM DTT, 0.5 mM EDTA, 0.1 mg/ml BSA, 0.1 mg/ml heparin, room temperature; FP 30 min with 2 nM RNA; EMSA 20 min plus 10% glycerol and RiboLock, 6% native gel at 4°C; mass photometry without BSA/heparin; conditions: protein: recombinant; tags: N-terminal His; chain copies: 4; label: fluorescein (Roche RNA labeling mix, internal); single strand

T1 sequence (P04406 whole entry): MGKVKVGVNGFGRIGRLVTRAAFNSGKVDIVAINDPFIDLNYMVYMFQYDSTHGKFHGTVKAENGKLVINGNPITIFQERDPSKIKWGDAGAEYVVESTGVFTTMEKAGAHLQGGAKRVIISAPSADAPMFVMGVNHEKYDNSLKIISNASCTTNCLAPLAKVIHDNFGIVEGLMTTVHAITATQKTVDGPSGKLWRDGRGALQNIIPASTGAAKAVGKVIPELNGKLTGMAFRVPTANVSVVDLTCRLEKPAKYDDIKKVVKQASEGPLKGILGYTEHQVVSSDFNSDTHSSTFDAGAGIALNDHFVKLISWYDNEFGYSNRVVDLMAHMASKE

B1: TNFα-ARE38 (ssRNA)
RNA: GUGAUUAUUUAUUAUUUAUUUAUUAUUUAUUUAUUUAG
For B1, the Kd (GAPDH [1]) was 217 nM and the Kd (GAPDH [2]) was 167 nM.

B2: RPL13a 5'UTR (ssRNA)
RNA: GGGCCUCCUUUUCCAAGCGGCUGCCGAAGAUGGCGGAGGUGCAGGUCCUGGUGCUUGAUGGUCGAGGCCAUCUCCUGGGCCGCCUGGCGGCCAUCGUGGCUAAACAG
For B2, the Kd (GAPDH [3]) was 887000 nM.

B3: Rβ31 (ssRNA)
RNA: UGGCCAAUGCCCUGGCUCACAAAUACCACUG
B3 was tested, and the Kd (GAPDH [2]; S17 legend says FITC-labeled RNA) was 1310 nM.

B4: GAPDH 5'UTR (ssRNA)
RNA: GGGCUCUCUGCUCCUCCUGUUCGACAGUCAGCCGCAUCUUCUUUUGCGUCGCCAGCCGAGCCACAUCGCUCAGACACC
B4 was tested, and the Kd (GAPDH [1]; label: fluorescein (Roche RNA labeling mix, internal)) was 400 nM.

From publication PMC12582121, “RNA binding of GAPDH controls transcript stability and protein translation in acute myeloid leukemia”
